Reference: patent US20130217633A1

Experiments:
[1] = target: Bcl-2 of primary chronic lymphocytic leukemia (CLL) cells (human) (UniProt P10415); test: cell-based or functional assay
[2] = target: wild type Bcl-2 (overexpressed in WEHI7.2 cells) (UniProt P10415); test: cell-based or functional assay
Sequence of wild type Bcl-2 (overexpressed in WEHI7.2 cells) (P10415 whole entry): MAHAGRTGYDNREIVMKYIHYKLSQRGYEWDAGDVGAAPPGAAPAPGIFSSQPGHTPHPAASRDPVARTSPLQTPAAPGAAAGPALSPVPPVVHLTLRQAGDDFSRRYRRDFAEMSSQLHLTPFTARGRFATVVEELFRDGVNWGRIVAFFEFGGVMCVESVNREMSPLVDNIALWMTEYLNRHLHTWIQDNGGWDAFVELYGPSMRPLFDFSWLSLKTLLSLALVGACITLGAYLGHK

Sequence of Bcl-2 of primary chronic lymphocytic leukemia (CLL) cells (human) (P10415 whole entry): as above

“TAT-IDP (IP3R-derived peptide fused with the cell-penetrating peptide of HIV TAT)” showed a percentage of primary CLL cells with Ca2+ elevation [1] of 26%, a Ca^2+ spikes per cell (single cell Ca2+ imaging, Bcl-2-positive WEHI7.2 cells) (Ca^2+ spikes per cell) [2] of 6 and a percentage of Bcl-2-positive WEHI7.2 cells with a sustained pattern of Ca^2+ oscillations (three or more peaks) [2] of 36%. For the same substance, the percentage of Bcl-2-positive WEHI7.2 cells with one or two isolated Ca^2+ oscillations [2] was 22%.
